From patent publication US20170008955A1 (CNJ, published 2017)
Residue numbers refer to the chain shown, from its start. Values belong to the binder of their own block, whether it stands above or below them.

Columns and labels:
Aβ42 oligomers = molecular target: T1, Aβ42 oligomers (UniProt P05067 672-713); test: Biacore (SPR), Aβ oligomer preparation AβO1 (HQ AβO1); lower end of the range
T1 construct: domain: Aβ42; immobilized preparation containing monomers, low and high molecular weight oligomers; also called Amyloid beta oligomers; Aβ oligomers
Procedure: Using a Biacore™ 3000, Aβ42 oligomers were immobilized (containing monomers, low and high molecular weight oligomers) and BSA (reference surface) on 4 separate flow cells of a biosensorchip. Murine 5E3 or humanized 5E3 IgG1, IgG2, and IgG4 were then diluted, sequentially injected over the different immobilized peptides and antibody binding monitored in real time. Binding data was collected by sequentially injecting buffer blanks, 1/10 dilutions of m5E3 or 1 uM dilutions of hu5E3 control over separate flow cells immobilized with BSA or Aβ42 oligomer on another biosensor chip at a flow rate of 10 μl/minute. Association was allowed for 200 seconds, followed by dissociation for 500 seconds and binding responses collected 10 seconds before the end of the […]. All binding responses were double-referenced by subtracting buffer blanks and BSA reference surface binding.
Results: As shown in FIG. 9A and FIG. 9B, the humanized 5E3 isotypes bound to the Aβ42 oligomer preparation. Affinity constants were determined for hu5E3 IgG1 Aβ42 oligomer preparations.

cSNK:BSA conjugate [1] = molecular target: T2, cSNK:BSA conjugate (bovine, head-to-tail cyclized; conjugated to BSA carrier); test: BLI (Octet), KD2; unlabelled reference row, taken as hu5E3
T2 construct: also called BSA-cSNK

cSNK:BSA conjugate [2] = molecular target: T2, cSNK:BSA conjugate; test: BLI (Octet), KD1; unlabelled reference row, taken as hu5E3; unlabelled reference row at the top of the table
cSNK:BSA conjugate [3] = molecular target: T2, cSNK:BSA conjugate; test: BLI 2:1 fit, site 1 (KD1); 3.13 nM row
Procedure: (§1) Biolayer interferometry (Octet […], ForteBio) was used to qualitatively/quantitatively assess the interactions between humanized versions of 5E3 and cSNK:BSA conjugate. […] MAbs were loaded onto sensors and then washed in PBST. Each sensor was associated with one of several cSNK:BSA standards (100 nM to 0 nM) and then washed in PBST. Data was processed statistically using ForteBio Data Analysis software to determine the strength of antigen-antibody binding (KD). For each mAb analyzed, a 2:1 model provided the “best fit”.

cSNK:BSA conjugate [4] = molecular target: T2, cSNK:BSA conjugate; test: BLI 2:1 fit, site 1 (KD1); 100 nM row
Procedure: as §1

cSNK:BSA conjugate [5] = molecular target: T2, cSNK:BSA conjugate; test: BLI 2:1 fit, site 1 (KD1); 1.56 nM row
Procedure: as §1

T2 sequence (P02769 25-607 limits assumed): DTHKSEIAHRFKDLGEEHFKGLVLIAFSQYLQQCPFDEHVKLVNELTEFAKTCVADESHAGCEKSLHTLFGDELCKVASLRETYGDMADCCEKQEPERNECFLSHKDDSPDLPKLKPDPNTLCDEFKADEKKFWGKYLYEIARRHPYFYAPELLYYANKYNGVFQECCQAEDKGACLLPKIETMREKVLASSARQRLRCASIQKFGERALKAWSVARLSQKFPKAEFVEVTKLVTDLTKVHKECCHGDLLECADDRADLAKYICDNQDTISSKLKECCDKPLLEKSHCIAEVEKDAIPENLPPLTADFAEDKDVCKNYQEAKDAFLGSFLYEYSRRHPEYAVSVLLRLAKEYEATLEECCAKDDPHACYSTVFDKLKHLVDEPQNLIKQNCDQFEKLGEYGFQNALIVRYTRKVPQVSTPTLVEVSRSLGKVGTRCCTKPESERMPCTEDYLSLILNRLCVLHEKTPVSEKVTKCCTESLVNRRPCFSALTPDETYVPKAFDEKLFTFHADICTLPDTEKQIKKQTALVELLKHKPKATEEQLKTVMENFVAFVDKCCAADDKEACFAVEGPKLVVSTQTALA
T1 sequence (P05067 672-713 limits assumed): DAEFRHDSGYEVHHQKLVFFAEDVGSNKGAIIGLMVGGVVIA

- Kd (Aβ42 oligomers): ≥ 182000 nM
- Kd (cSNK:BSA conjugate [1]): 15.1 nM
- Kd (cSNK:BSA conjugate [2]): 6.27 nM
B1: hu5E3-IgG1 (antibody, V domains shown)
VH: QVQLQQSGPEVKKPGASVKISCKASGYIFTSYYIQWVIHAPGQGLEWIGWIYPGNVNTKYNEKFKGKATLTADKSSSTAYMELSSLTSEDTAVYFCARMDYEAHYWGQGTTVTVSS
VL: DIQMTQSPSSLSASVGDRVTITCRASQEISGYLTWLQQKPEGAIKRLIYAASTLDSGVPKRFSGSRSGSDYSLTISSLQPEDFATYNCLQYANYPRTFGGGTKLEIK
notes: human IgG1/kappa; also called humanized 5E3 IgG1; IHA variant

- Kd (cSNK:BSA conjugate [3]): 0.557 nM
- Kd (cSNK:BSA conjugate [4]): 0.557 nM
- Kd (cSNK:BSA conjugate [5]): 0.557 nM
B2: rehu5E3-IgG4 (antibody, V domains shown)
VH: B1 VH with K12V, T87R, T91S, T111L
VL: B1 VL with V15L, I21L, G42K, S72T, T85D
notes: human IgG4/kappa; also called IgG4 rehu version
